The text below walks through data of patent US9315837B2, “Desaturases of a green microalga and uses thereof” (Ben Gurion University of the Negev Research and Development …, priority 2010, dated 2016).

Values joined by “and” are separate entries in the source; they are usually repeats but may differ in a detail not shown here. Equal values may be shown once. Marks after values point to notes of the source that are not given here.

In data set [1] the test system is supplied fatty acids in S. cerevisiae strain W303. Kind of data set: Functional expression of PiDes12, PiDes6 and PiDes5 in S. cerevisiae fed with fatty acid substrates, GC of FAMEs. As to conditions: for substrate conversion (ARA emergence after addition of DGLA): PiDes5 transformant, total fatty acids. The format is cell-based, Saccharomyces cerevisiae. From the text:
(§1) The open reading frames (ORFs) encoding for the […], Δ6, and Δ5 desaturases were amplified using PfuUltra II fusion HS DNA polymerase (Stratagene, La Jolla, Calif., USA) with the respective primer pairs (Table 1). The forward primers contained a restriction site (underlined) and a yeast translation consensus (double underlined) followed by ATG. The reverse primers contained a restriction site (underlined) and a stop codon (double underlined). Following restriction and ligation to the pYES2 vector (Invitrogen, Carlsbad, Calif., USA), the constructs were used to transform S. cerevisiae strain W303 by the PEG/lithium acetate method [R. D. Gietz, R. A. Woods, Yeast Transformation by the LiAc/SS Carrier DNA/PEG Method, in: W. Xiao (Ed.), Yeast Protocols, Second Edition, vol. 313, Methods in Molecular Biology, Humana Press Inc, Totowa, N. J., 2006, pp. 107-120]. The yeast cells harboring the empty pYES2 vector were used as control. Transformants were selected by uracil prototrophy on yeast synthetic medium (YSM) lacking uracil (Invitrogen, Carlsbad, Calif., USA). For functional expression, a minimal selection medium containing 2% (w/v) raffinose was inoculated with the pYPiDesΔ12, pYPiDesΔ6 or pYPiDesΔ5 transformants and grown at 27° C. for 24 h in a water bath shaker. Five ml of sterile YSM, containing 1% (w/v) Tergitol-40 and 250 µM of the appropriate fatty acid substrate was inoculated with raffinose-grown cultures to obtain an OD of 0.2 at 600 nm. Expression was induced by adding galactose to a final concentration of 2% (w/v) and cultures were further grown at 27° C. for 48 h. Cells were harvested by centrifugation, washed twice with 0.1% NaHCO^3, freeze-dried and used for fatty acid analysis.
(§2) Fatty acid methyl esters (FAMES) were obtained by transmethylation of the freeze-dried P. incisa or yeast biomass, with dry methanol containing 2% H2SO4 (v/v) and heating at 80° C. for 1.5 h while stirring under an argon atmosphere. Gas chromatographic analysis of FAMES was performed on a Thermo Ultra Gas chromatograph (Thermo Scientific, Italy) equipped with PTV injector, FID detector and a fused silica capillary column (30 m×0.32 mm; ZB WAXplus, Phenomenex). FAMES were identified by co-chromatography with authentic standards (Sigma Chemical Co., St. Louis, Mo.; Larodan Fine Chemicals, Malmo, Sweden) and FAME of fish oil (Larodan Fine Chemicals). Each sample was analyzed in duplicates of three independent experiments. The structures of fatty acids were confirmed by GC-MS of their pyrrolidine derivatives [W. W. Christie, The analysis of fatty acids in: W. W. Christie (Ed.), Lipid analysis Isolation, separation, identification and structural analysis of lipids, vol. 15, Third edition, The Oily Press, Bridgewater, England, 2003, pp. 205-225] on HP 5890 equipped with a mass selective detector (HP 5971A) utilizing a HP-5 capillary column and a linear temperature gradient from 120 to 300° C.
The functional activities of the proteins encoded by PiDes12, PiDes6 and PiDes5 were examined by heterologous expression in S. cerevisiae. To this aim, the pYES2 constructs pYPiDes12, pYPiDes6 and pYPiDes5 containing the ORFs for PiDes12, PiDes6, and PiDes5, respectively, were transformed into S. cerevisiae. […] An attempt to improve the expression of the recombinant protein and to increase the activity by the modification of yeast translation consensus was not successful.
PiDes6 and PiDes5 expressions were induced in the presence of the main ω6 substrates for Δ6 or Δ5 fatty acid desaturases, 18:2ω6 and 20:3ω6, respectively. New peaks corresponding to 18:3ω6 and 20:4ω6, respectively, were detected, confirming the predicted function of PiDes6 and PiDes5. […] PiDes6 was not active on […] either, whereas PiDes5 desaturated it to the non-methylene-interrupted 20:4^Δ5,11,14,17. PiDes5 converted 20:4ω3 into the respective Δ5 product, 20:5ω3 (EPA) as well as the added 18:1 into the non-methylene-interrupted 18:2^Δ5,9 (FIG. 3). […]

For data set [2], the system named is 20:3ω6 in lipid classes of S. cerevisiae. Kind of data set: Fatty acid analysis of individual lipid classes of S. cerevisiae expressing the PiDes5 ORF, fed with 20:3ω6. The format is cell-based, Saccharomyces cerevisiae. The note with it: for % conversion: 24 h after feeding 20:3ω6.
Source text: as §1, §2
The biomass of S. cerevisiae was heated with isopropanol at 80° C. for 10 min and lipids were extracted by the method of Bligh-Dyer (1959) [E. G. Bligh, W. J. Dyer, A rapid method of total lipid extraction and purification, Can. J. Biochem. Physiol. 37 (1959) 911-917]. Total lipid extract was separated into neutral and polar lipids by silica Bond-Elute cartridges (Varian, Calif.) using 1% of ethanol in chloroform (v/v) and methanol to elute neutral and polar lipids, respectively [Z. Cohen, S. Didi, Y. M. Heimer, Overproduction of γ-linolenic and eicosapentaenoic acids by algae, Plant Physiol. 98 (1992) 569-572]. […]

Setting [3] is: substrate 18:1^Δ9, PiDesΔ5 product 18:2^Δ5,9, product/(substrate + product).
Setting [4] is: substrate 18:3^Δ9,12,15, PiDesΔ6 product 18:4^Δ6,9,12,15, PiDesΔ5 product 18:4^Δ5,9,12,15 (tentative identification).
[5] abbreviates: substrate 20:3^Δ11,14,17, PiDesΔ5 product 20:4^Δ5,11,14,17.

B1: PiDes12: P. incisa Δ12 desaturase, predicted protein of 380 amino acids, SEQ ID NO: 1 (protein, listed as Parietochloris incisa)
chain: MGKGGCYQAGPPSAKKWESRVPTAKPEFTIGTLRKAIPVHCFERSIPRSFAYLAADLAAIAVMYYLSTFIDHPAVPRVLAWGLLWPAYWYFQGAVATGVWVIAHECGHQAFSPYQWLNDAVGLVLHSCLLVPYYSWKHSHRRHHSNTGSTTKDEVFVPREAAMVESDFSLMQTAPARFLVIFVSLTAGWPAYLFANASGRKYGKWANHFDPYSPIFTKRERSEIVVSDVALTVVIAGLYSLGKAFGWAWLVKEYVIPYLIVNMWLVMITLLQHTHPELPHYADKEWDWLRGALATCDRSYGGMPDHLHHHIADTHVAHHLFSTMPHYHAQEATEAIKPILGKYYKQDKRNVWAALWEDFSLCRYVAPDTAGSGILWFRA
In the case of B1, the desaturation activity result in data set [1] (heterologous expression in yeast) is “very low desaturation activity”. In data set [1] (yeast transformed with pYPiDes12), the “peak corresponding to 18:2” value is recorded as 0.3 % of TFA.

B2: PiDes5: P. incisa Δ5 desaturase, predicted protein of 482 amino acids, SEQ ID NO: 3 (protein, listed as Parietochloris incisa)
chain: MMAVTEGAGGVTAEVGLHKRSSQPRPAAPRSKLFTLDEVAKHDSPTDCWVVIRRRVYDVTAWVPQHPGGNLIFVKAGRDCTQLFDSYHPLSARAVLDKFYIGEVDVRPGDEQFLVAFEEDTEEGQFYTVLKKRVEKYFRENKLNPRATGAMYAKSLTILAGLALSFYGTFFAFSSAPASLLSAVLLGICMAEVGVSIMHDANHGAFARNTWASHALGATLDIVGASSFMWRQQHVVGHHAYTNVDGQDPDLRVKDPDVRRVTKFQPQQSYQAYQHIYLAFLYGLLAIKSVLLDDFMALSSGAIGSVKVAKLTPGEKLVFWGGKALWLGYFVLLPVVKSRHSWPLLAACWLLSEFVTGWMLAFMFQVAHVTSDVSYLEADKTGKVPRGWAAAQAATTADFAHGSWFWTQISGGLNYQVVHHLFPGICHLHYPAIAPIVLDTCKEFNVPYHVYPTFVRALAAHFKHLKDMGAPTAIPSLATVG
On to B2, for which the “20:4ω6, fatty acid composition” value in data set [2] (lipid class DAG) is 2.0 % of total fatty acids; in data set [2] (lipid class FFA), 3.6 % of total fatty acids; in data set [2] (lipid class PC), 3.6 % of total fatty acids; in data set [2] (lipid class PE), 1.6 % of total fatty acids; in data set [2] (lipid class PI + PS), 1.1 % of total fatty acids; in data set [2] (lipid class SE), 1.1 % of total fatty acids. In data set [2] (lipid class TAG), the “20:4ω6, fatty acid composition” value was 2.0 % of total fatty acids. Further, the “% conversion” value in data set [2] (lipid class DAG) is 24.0%; in data set [2] (lipid class FFA), 17.2%; in data set [2] (lipid class PC) it was 24.2%; in data set [2] (lipid class PE) it was 24.6%; in data set [2] (lipid class PI + PS) it was 18.1%; in data set [2] (lipid class SE) it was 8.4%. Moreover, in data set [2] (lipid class TAG), the “% conversion” value is given as 9.3%. The “20:4ω6 share by lipid class (% of total lipid)” value worked out at 1.4 % TL in data set [2] (share found in lipid class DAG); 9.1 % TL in data set [2] (share found in lipid class FFA); 25.7 % TL in data set [2] (share found in lipid class PC); 2.3 % TL in data set [2] (share found in lipid class PE); 4.4 % TL in data set [2] (share found in lipid class PI + PS); 1.8 % TL in data set [2] (share found in lipid class SE). Also, in data set [2] (share found in lipid class TAG), the “20:4ω6 share by lipid class (% of total lipid)” value was found to be 55.2 % TL. The “substrate conversion (ARA emergence after addition of DGLA)” value in data set [1] (after 3 h) is 10.9% and 10.6%; in data set [1] (after 24 h) it was 15.1%. Moreover, the “Desaturase product and conversion (%) of supplied fatty acid” value in data set [1] (setting [3]) is recorded as 18:2^Δ5,9 (4.2) %; in data set [1] (setting [4]), 18:4^Δ5,9,12,15** (1.4) %; in data set [1] (substrate 20:3^Δ8,11,14, PiDesΔ5 product 20:4^Δ5,8,11,14), 20:4^Δ5,8,11,14 (16.4) %; in data set [1] (setting [5]), 20:4^Δ5,11,14,17 (10.0) %; in data set [1] (substrate 20:4^Δ8,11,14,17, PiDesΔ5 product 20:5^Δ5,8,11,14,17), 20:5^Δ5,8,11,14,17 (17.1) %.

B3: PiDes6: P. incisa Δ6 desaturase, predicted protein of 481 amino acids, SEQ ID NO: 2 (protein, listed as Parietochloris incisa)
chain: MCQGQAVQGLRRRSSFLKLTGDAIKGAVAAISDFNKLPAATPVFARRSLSDSALQQRDGPRSKQQVTLEELAQHNTPEDCWLVIKNKVYDVSGWGPQHPGGHVIYTYAGKDATDVFACFHAQTTWSQLRPFCIGDIVEEEPMPALLKDFRELRTRLQQQGLFRSNKLYYLYKVASTLSLLAAALAVLITQRDSWLGLVGGAFLLGLFWQQSGWLAHDFLHHQVFTDRQWNNVMGYFLGNVCQGFSTDWWKSKHNVHHAVPNELDSDSKAARDPDIDTLPLLAWSSEMLDSMSNSGARLFVRMQHYFFFPILLFARMSWCQQSVAHASDLSRTSKAGVYELAYLALHYAWFLGAAFSVLPPLKAVVFALLSQMFSGFLLSIVFVQSHNGMEVYSDTKDFVTAQIVSTRDILSNVWNDWFTGGLNYQIEHHLFPTLPRHNLGKVQKSIMELCHKHGLVYENCGMATGTYRVLQRLANVAAEA
For B3, the “Desaturase product and conversion (%) of supplied fatty acid” value in data set [1] (setting [3]) is on record as “neither active”; in data set [1] (substrate 18:2^Δ9,12, PiDesΔ6 product printed 18:2^Δ6,9,12, product/(substrate + product)), 18:2^Δ6,9,12 (5.1) %; in data set [1] (setting [4]) it was 18:4^Δ6,9,12,15 (4.5) %; in data set [1] (setting [5]), “not active”.
